Tests used:
HSPD1 (human) = HSPD1 (human) (UniProt P10809); test: co-IP with control IgG, mass spectrometry; lysate of cells with N-FLAG B3GNT2
HADHA (human) = HADHA (human) (UniProt P40939); test: as above
NPM1 (human) = NPM1 (human) (UniProt P06748); test: as above
IPO13 (human) = IPO13 (human) (UniProt O94829); test: as above
MSN (human) = MSN (human) (UniProt P26038); test: as above
SPRR1A (human) = SPRR1A (human) (UniProt P35321); test: as above
GALNT2 (human) = GALNT2 (human) (UniProt Q10471); test: as above
EPRS (human) = EPRS (human) (UniProt P07814); test: as above
Sequence of EPRS (human) (P07814 whole entry): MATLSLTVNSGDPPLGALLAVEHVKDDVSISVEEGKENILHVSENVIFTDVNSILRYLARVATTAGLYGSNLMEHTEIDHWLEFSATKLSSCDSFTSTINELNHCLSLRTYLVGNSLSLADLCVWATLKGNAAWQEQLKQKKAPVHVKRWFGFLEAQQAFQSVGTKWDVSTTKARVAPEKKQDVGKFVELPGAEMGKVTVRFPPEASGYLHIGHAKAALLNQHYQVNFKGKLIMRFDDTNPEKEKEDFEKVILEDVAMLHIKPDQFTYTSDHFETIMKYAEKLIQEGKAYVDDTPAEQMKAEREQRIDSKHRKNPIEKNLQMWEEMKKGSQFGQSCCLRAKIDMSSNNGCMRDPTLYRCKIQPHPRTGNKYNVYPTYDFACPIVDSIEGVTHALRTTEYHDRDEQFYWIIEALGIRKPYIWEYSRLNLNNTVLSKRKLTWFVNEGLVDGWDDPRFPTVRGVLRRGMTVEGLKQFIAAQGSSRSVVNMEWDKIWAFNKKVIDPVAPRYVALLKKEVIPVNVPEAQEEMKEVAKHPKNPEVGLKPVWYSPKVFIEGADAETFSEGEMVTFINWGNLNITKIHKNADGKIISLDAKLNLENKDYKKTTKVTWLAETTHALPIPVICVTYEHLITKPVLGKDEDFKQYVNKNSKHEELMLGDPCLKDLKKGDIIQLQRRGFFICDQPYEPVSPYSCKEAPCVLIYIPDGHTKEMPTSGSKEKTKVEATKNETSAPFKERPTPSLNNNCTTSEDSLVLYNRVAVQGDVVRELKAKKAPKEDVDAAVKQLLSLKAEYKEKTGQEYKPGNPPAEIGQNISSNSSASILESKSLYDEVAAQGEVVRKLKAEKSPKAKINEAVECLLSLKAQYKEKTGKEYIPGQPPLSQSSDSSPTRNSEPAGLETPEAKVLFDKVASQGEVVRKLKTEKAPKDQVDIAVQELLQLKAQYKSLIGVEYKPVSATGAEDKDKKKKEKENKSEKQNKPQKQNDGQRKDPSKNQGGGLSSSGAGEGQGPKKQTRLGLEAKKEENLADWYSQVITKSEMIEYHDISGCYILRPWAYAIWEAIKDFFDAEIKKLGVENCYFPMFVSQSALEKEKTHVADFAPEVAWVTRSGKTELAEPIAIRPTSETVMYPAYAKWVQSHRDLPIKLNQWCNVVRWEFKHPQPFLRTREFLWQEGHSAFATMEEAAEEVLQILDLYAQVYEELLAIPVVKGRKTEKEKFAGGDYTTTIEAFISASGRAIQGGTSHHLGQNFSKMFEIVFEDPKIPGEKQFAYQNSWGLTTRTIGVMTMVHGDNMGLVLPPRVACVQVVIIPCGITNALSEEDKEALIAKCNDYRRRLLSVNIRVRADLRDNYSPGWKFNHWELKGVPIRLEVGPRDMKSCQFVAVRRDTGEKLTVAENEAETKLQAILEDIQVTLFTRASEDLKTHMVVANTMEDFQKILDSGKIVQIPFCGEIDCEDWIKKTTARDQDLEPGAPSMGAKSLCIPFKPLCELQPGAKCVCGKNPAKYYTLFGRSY

RPS4X (human) = RPS4X (human) (UniProt P62701); test: as above
CCT2 (human) = CCT2 (human) (UniProt P78371); test: as above
SLC25A5 (human) = SLC25A5 (human) (UniProt P05141); test: as above
Sequence of SLC25A5 (human) (P05141 2-298 limits assumed): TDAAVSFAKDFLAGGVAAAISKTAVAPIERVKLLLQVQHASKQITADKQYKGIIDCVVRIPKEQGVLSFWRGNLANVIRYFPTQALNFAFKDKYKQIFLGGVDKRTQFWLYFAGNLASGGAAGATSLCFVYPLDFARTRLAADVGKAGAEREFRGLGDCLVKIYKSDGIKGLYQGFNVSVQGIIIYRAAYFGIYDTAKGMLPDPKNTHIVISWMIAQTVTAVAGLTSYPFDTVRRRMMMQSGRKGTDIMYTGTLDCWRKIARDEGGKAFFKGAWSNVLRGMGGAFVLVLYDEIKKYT

SLC27A4 (human) = SLC27A4 (human) (UniProt Q6P1M0); test: as above
ZC3HAV1 (human) = ZC3HAV1 (human) (UniProt Q7Z2W4); test: as above
GAPDH (human) = GAPDH (human) (UniProt P04406); test: as above
CD70 (human) = CD70 (human) (UniProt P32970); test: as above
Sequence of CD70 (human) (P32970 whole entry): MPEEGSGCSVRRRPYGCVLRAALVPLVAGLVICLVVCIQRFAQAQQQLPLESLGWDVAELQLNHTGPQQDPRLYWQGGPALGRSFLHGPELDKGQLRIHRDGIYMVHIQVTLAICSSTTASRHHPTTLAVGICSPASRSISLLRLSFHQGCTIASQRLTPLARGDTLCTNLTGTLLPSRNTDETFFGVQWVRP

ILF3 (human) = ILF3 (human) (UniProt Q12906); test: as above
RARS (human) = RARS (human) (UniProt P54136); test: as above
PJA2 (human) = PJA2 (human) (UniProt O43164); test: as above
PIGR (human) = PIGR (human) (UniProt P01833); test: as above
PSMD4 (human) = PSMD4 (human) (UniProt P55036); test: as above
TOR1AIP2 (human) = TOR1AIP2 (human) (UniProt Q8NFQ8); test: as above
MAGT1 (human) = MAGT1 (human) (UniProt Q9H0U3); test: as above
SEL1L (human) = SEL1L (human) (UniProt Q9UBV2); test: as above
MYO1C (human) = MYO1C (human) (UniProt O00159); test: as above
Sequence of MYO1C (human) (O00159 other isoform, or with tags, fused parts or gaps limits assumed): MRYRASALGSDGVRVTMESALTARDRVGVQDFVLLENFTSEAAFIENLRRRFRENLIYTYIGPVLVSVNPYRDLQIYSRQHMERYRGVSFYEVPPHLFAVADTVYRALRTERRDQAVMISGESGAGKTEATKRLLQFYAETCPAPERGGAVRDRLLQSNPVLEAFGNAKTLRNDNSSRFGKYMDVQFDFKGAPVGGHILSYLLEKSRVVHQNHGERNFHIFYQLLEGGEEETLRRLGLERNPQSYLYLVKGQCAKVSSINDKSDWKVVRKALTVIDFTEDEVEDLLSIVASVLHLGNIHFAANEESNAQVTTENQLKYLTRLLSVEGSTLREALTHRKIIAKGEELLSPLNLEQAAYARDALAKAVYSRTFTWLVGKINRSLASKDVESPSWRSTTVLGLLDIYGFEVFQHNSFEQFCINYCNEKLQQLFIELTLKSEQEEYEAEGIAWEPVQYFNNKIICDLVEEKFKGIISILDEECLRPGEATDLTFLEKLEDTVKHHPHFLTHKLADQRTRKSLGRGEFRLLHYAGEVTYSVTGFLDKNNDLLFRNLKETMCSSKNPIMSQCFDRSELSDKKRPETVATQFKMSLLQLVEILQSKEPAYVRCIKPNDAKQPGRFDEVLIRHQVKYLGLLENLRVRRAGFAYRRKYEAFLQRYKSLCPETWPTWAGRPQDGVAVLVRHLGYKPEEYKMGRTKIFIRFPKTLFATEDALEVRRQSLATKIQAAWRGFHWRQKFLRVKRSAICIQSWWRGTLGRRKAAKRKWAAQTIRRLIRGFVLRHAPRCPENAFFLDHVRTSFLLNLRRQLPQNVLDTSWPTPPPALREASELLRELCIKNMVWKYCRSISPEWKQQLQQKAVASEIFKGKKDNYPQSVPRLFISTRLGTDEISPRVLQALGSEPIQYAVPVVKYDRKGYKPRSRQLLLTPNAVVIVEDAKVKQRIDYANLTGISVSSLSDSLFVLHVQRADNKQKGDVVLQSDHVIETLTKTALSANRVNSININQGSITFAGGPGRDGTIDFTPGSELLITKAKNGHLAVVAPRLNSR

ARF4 (human) = ARF4 (human) (UniProt P18085); test: as above
DNAJB11 (human) = DNAJB11 (human) (UniProt Q9UBS4); test: as above
CCT7 (human) = CCT7 (human) (UniProt Q99832); test: as above
EIF4A1 (human) = EIF4A1 (human) (UniProt P60842); test: as above
SDF4 (human) = SDF4 (human) (UniProt Q9BRK5); test: as above
RRP12 (human) = RRP12 (human) (UniProt Q5JTH9); test: as above
Sequence of RRP12 (human) (Q5JTH9 other isoform, or with tags, fused parts or gaps limits assumed): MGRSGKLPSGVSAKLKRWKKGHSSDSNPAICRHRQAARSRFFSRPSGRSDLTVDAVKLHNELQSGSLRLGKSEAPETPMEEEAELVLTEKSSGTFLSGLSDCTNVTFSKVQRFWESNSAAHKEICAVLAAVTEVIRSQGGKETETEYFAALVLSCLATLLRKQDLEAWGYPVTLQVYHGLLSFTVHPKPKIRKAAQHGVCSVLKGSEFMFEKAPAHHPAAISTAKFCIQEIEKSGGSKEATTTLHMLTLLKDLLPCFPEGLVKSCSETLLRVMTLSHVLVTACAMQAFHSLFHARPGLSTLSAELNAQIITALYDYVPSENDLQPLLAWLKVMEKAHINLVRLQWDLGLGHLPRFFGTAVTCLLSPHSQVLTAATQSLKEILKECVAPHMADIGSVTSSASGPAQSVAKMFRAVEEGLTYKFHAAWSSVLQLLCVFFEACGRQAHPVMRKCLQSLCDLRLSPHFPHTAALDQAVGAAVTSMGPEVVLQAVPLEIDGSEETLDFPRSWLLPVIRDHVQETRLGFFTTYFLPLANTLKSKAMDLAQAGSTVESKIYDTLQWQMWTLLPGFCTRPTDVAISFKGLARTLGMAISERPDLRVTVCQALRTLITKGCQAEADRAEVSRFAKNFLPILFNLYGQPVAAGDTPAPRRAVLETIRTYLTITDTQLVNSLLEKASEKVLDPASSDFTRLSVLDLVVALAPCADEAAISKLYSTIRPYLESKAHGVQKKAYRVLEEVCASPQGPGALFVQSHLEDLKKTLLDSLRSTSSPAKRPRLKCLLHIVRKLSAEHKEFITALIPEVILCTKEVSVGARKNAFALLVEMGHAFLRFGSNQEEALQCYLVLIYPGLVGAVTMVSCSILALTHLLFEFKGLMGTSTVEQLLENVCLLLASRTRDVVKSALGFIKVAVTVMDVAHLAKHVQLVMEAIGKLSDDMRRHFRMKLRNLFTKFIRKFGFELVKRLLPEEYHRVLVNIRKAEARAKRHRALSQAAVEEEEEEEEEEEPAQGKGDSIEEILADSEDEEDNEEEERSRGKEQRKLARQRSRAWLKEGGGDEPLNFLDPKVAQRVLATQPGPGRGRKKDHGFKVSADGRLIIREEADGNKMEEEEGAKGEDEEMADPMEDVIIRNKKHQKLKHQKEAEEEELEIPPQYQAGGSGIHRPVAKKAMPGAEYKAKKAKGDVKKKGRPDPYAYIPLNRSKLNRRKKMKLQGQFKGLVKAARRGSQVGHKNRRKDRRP

UGGT1 (human) = UGGT1 (human) (UniProt Q9NYU2); test: as above
GANAB (human) = GANAB (human) (UniProt Q14697); test: as above
RPL9 (human) = RPL9 (human) (UniProt P32969); test: as above
CTHRC1 (human) = CTHRC1 (human) (UniProt Q96CG8); test: as above
ARHGEF2 (human) = ARHGEF2 (human) (UniProt Q92974); test: as above
SLC25A1 = SLC25A1 (UniProt P53007); test: co-IP, anti-FLAG, lysate of C-FLAG B3GNT2 cells, mass spectrometry
HSPA5 = HSPA5 (UniProt P11021); test: as above

Sequence of HADHA (human) (P40939 37-763 limits assumed): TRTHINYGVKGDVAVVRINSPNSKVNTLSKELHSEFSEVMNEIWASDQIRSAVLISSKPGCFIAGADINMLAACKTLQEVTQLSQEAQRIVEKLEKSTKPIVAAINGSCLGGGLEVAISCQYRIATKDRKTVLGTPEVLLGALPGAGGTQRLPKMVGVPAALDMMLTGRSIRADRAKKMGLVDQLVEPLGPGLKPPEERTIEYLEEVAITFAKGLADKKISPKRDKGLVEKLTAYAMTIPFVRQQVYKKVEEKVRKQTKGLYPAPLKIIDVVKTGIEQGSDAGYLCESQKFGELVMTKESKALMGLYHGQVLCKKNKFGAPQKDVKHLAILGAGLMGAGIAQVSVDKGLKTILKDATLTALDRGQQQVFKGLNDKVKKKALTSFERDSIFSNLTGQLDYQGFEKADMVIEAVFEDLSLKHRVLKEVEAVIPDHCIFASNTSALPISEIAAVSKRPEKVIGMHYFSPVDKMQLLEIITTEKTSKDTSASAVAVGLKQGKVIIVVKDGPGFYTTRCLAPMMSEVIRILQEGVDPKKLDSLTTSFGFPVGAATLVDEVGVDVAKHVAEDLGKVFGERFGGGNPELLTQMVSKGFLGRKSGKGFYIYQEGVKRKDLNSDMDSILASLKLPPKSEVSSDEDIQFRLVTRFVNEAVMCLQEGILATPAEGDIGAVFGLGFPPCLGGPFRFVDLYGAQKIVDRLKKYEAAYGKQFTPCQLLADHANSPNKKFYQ

Substance: IgG control (Millipore Sigma 12-371) (antibody)
- co-IP mass spectrometry count (HSPD1 (human)): 0
- co-IP mass spectrometry count (HADHA (human)): 0
- co-IP mass spectrometry count (NPM1 (human)): 0
- co-IP mass spectrometry count (IPO13 (human)): 0
- co-IP mass spectrometry count (MSN (human)): 0
- co-IP mass spectrometry count (SPRR1A (human)): 0
- co-IP mass spectrometry count (GALNT2 (human)): 0
- co-IP mass spectrometry count (EPRS (human)): 0
- co-IP mass spectrometry count (RPS4X (human)): 12
- co-IP mass spectrometry count (CCT2 (human)): 0
- co-IP mass spectrometry count (SLC25A5 (human)): 6
- co-IP mass spectrometry count (SLC27A4 (human)): 0
- co-IP mass spectrometry count (ZC3HAV1 (human)): 0
- co-IP mass spectrometry count (GAPDH (human)): 11
- co-IP mass spectrometry count (CD70 (human)): 0
- co-IP mass spectrometry count (ILF3 (human)): 0
- co-IP mass spectrometry count (RARS (human)): 0
- co-IP mass spectrometry count (PJA2 (human)): 0
- co-IP mass spectrometry count (PIGR (human)): 0
- co-IP mass spectrometry count (PSMD4 (human)): 0
- co-IP mass spectrometry count (TOR1AIP2 (human)): 0
- co-IP mass spectrometry count (MAGT1 (human)): 0
- co-IP mass spectrometry count (SEL1L (human)): 0
- co-IP mass spectrometry count (MYO1C (human)): 0
- co-IP mass spectrometry count (ARF4 (human)): 0
- co-IP mass spectrometry count (DNAJB11 (human)): 0
- co-IP mass spectrometry count (CCT7 (human)): 0
- co-IP mass spectrometry count (EIF4A1 (human)): 0
- co-IP mass spectrometry count (SDF4 (human)): 0
- co-IP mass spectrometry count (RRP12 (human)): 0
- co-IP mass spectrometry count (UGGT1 (human)): 0
- co-IP mass spectrometry count (GANAB (human)): 0
- co-IP mass spectrometry count (RPL9 (human)): 0
- co-IP mass spectrometry count (CTHRC1 (human)): 0
- co-IP mass spectrometry count (ARHGEF2 (human)): 0

Substance: C-terminal FLAG tagged B3GNT2 (from UniProt Q9NY97 1-397) (enzyme)
- co-IP/MS count (SLC25A1): 8
- co-IP/MS count (HSPA5): 130

Reference: US20240261333A1, “NOVEL TARGETS FOR ENHANCING ANTI-TUMOR IMMUNITY” (THE BROAD INSTITUTE, INC., priority 2021, published 2024)
